According to doi:10.1101/2021.07.08.451529v1:

B1: recombinant MDH-2 (Caenorhabditis elegans) (protein)
chain: SQAPKVALLGAAGGIGQPLGLLLKQDPLVAHLALYDVVNTPGVAADLSHIDSNAKVTAHTGPKELYAAVENADVIVIPAGVPRKPGMTRDDLFNTNAGIVRDLAAVIAKASPKALIAIITNPVNSTVPIASEVLKKAGVYDPKRVFGVTTLDVVRSQAFVSELKGHDASKTVVPVVGGHAGITIIPLLSQVKPSTKFSEEEISKLTPRIQDAGTEVVNAKAGAGSATLSMALAGARFANALVRGIKGEKNVQCAYVASDAVKGVEYFSTPVELGPNGVEKILGVGKVSAYEQKLIDASVPELNKNIAKGVAFVKGN
B2: endogenous MDH-2 (Caenorhabditis elegans) (protein)
chain: B1 chain
B3: recombinant MDH-1 (Caenorhabditis elegans) (protein)
chain: MSAPLRVLVTGAAGQIGYSIVIRIADGTVFGKEQPVELVLLDVPQCSNILEGVVFELQDCALPTLFSVVAVTDEKSAFTGIDYAFLVGAMPRREGMERKDLLAANVKIFKSQGKALAEYAKPTTKVIVVGNPANTNAFIAAKYAAGKIPAKNFSAMTRLDHNRALAQLALKTGTTIGNVKNVIIWGNHSGTQFPDVTHATVNKNGTETDAYAAVGDNAFLQGPFIATVQKRGGVIIEKRKLSSAMSAAKAACDHIHDWHFGTKAGQFVSMAVPSDGSYGIPQGLIFSFPVTIEGGEWKIVQGLSFDDFAKGKIAATTKELEEERDDALKACDDANI
B4: endogenous MDH-1 (Caenorhabditis elegans) (protein)
chain: B3 chain

How the values were obtained:
[1] = substrate: O=C(O)CC(=O)C(=O)O; assay: purified protein; conditions: 100 μM NADH, 0.1 M phosphate pH 7.5, 0.1 M KCl, 24 °C
[2] = substrate: NC(=O)C1=CN([C@@H]2O[C@H](COP(=O)(O)OP(=O)(O)OC[C@H]3O[C@@H](n4cnc5c(N)ncnc54)[C@H](O)[C@@H]3O)[C@@H](O)[C@H]2O)C=CC1; assay: purified protein; conditions: 150 μM oxaloacetate, 0.1 M phosphate pH 7.5, 0.1 M KCl, 24 °C

Row | Protein | Km [1] [µM] | Km [2] [µM]
1 | B1 | 52 ± 4 | 
2 | B2 | 42 ± 2 | 
3 | B3 | 54 ± 4 | 61 ± 6
4 | B4 | 50 ± 4 | 
